Reference: patent US20160272693A1 (ZEALAND PHARMA A S, published 2016)
Read-outs that look alike come from different tables or passages of the source. *1 amine or outer side, *2 acyl side, *3 side chain or, on linkers, in order; H or OH if unused. Bridges are numbered along the chain shown (N, C = ends). [ ]: non-standard residue; d: D form. The star is where a group is joined. C20 diacid = O=C(O)CCCCCCCCCCCCCCCCCCC(=O)*; γGlu = O=C(O)[C@H](CCC(=O)[*:2])N[*:1]; Hyp = O=C(O)[C@@H]1C[C@@H](O)CN1; NMeI = CC[C@H](C)[C@H](NC)C(=O)O; Aad = N[C@@H](CCCC(=O)O)C(=O)O; Sar = CNCC(=O)O

T1: human amylin receptor 3 (hAMYR3), hCTR2 co-expressed with human receptor activity modifying protein 3 (hRAMP3) (human, UniProt P30988 25-474; O60896 24-148)
T1 sequence (looked up) 1: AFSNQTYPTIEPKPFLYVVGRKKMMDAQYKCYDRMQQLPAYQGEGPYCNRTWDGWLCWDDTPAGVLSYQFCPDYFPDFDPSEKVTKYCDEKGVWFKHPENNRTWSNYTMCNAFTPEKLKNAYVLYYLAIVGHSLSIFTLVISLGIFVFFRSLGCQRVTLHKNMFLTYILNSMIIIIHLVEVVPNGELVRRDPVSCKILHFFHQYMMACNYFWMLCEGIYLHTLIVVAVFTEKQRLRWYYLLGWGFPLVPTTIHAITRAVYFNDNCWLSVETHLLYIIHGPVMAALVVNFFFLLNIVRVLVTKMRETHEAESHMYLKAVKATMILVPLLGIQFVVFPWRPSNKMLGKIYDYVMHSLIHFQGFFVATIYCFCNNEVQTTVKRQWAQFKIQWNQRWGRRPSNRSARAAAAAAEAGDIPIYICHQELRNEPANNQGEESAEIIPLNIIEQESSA
T1 sequence (looked up) 2: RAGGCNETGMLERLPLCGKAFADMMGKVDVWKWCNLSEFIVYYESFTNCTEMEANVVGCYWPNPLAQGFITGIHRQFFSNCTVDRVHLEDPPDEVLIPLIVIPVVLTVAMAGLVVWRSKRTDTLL

B1: NN96: N-alpha-[(S)-4-carboxy-4-(19-carboxynonadecanoylamino)butyryl]-[Arg1,Glu14,His17,Pro37]-pramlintide-NH2 (peptide)
peptide: {C20 diacid-γGlu}-RCNTATCATQRLAEFLHHSSNNFGPILPPTNVGSNTP-NH2
modifications: disulfide 2-7
SMILES: CC[C@H](C)[C@H](NC(=O)[C@@H]1CCCN1C(=O)CNC(=O)[C@H](Cc1ccccc1)NC(=O)[C@H](CC(N)=O)NC(=O)[C@H](CC(N)=O)NC(=O)[C@H](CO)NC(=O)[C@H](CO)NC(=O)[C@H](Cc1c[nH]cn1)NC(=O)[C@H](Cc1c[nH]cn1)NC(=O)[C@H](CC(C)C)NC(=O)[C@H](Cc1ccccc1)NC(=O)[C@H](CCC(=O)O)NC(=O)[C@H](C)NC(=O)[C@H](CC(C)C)NC(=O)[C@H](CCCNC(=N)N)NC(=O)[C@H](CCC(N)=O)NC(=O)[C@@H](NC(=O)[C@H](C)NC(=O)[C@@H]1CSSC[C@H](NC(=O)[C@H](CCCNC(=N)N)NC(=O)CC[C@H](NC(=O)CCCCCCCCCCCCCCCCCCC(=O)O)C(=O)O)C(=O)N[C@@H](CC(N)=O)C(=O)N[C@@H]([C@@H](C)O)C(=O)N[C@@H](C)C(=O)N[C@@H]([C@@H](C)O)C(=O)N1)[C@@H](C)O)C(=O)N[C@@H](CC(C)C)C(=O)N1CCC[C@H]1C(=O)N1CCC[C@H]1C(=O)N[C@H](C(=O)N[C@@H](CC(N)=O)C(=O)N[C@H](C(=O)NCC(=O)N[C@@H](CO)C(=O)N[C@@H](CC(N)=O)C(=O)N[C@H](C(=O)N1CCC[C@H]1C(N)=O)[C@@H](C)O)C(C)C)[C@@H](C)O
B2: [19CD]-isoGlu-R-C( )-QTAT-C( )-ATERLAHFLQRSSF-Gly(Me)-A-Ile(Me)-LSSTEVGSNT-Hyp-NH2 (Compd. 57) (peptide)
peptide: {C20 diacid-γGlu}-RCQTATCATERLAHFLQRSSF[Sar]A[NMeI]LSSTEVGSNT[Hyp]-NH2
modifications: disulfide 2-7
SMILES: CC[C@H](C)[C@@H](C(=O)N[C@@H](CC(C)C)C(=O)N[C@@H](CO)C(=O)N[C@@H](CO)C(=O)N[C@H](C(=O)N[C@@H](CCC(=O)O)C(=O)N[C@H](C(=O)NCC(=O)N[C@@H](CO)C(=O)N[C@@H](CC(N)=O)C(=O)N[C@H](C(=O)N1C[C@H](O)C[C@H]1C(N)=O)[C@@H](C)O)C(C)C)[C@@H](C)O)N(C)C(=O)[C@H](C)NC(=O)CN(C)C(=O)[C@H](Cc1ccccc1)NC(=O)[C@H](CO)NC(=O)[C@H](CO)NC(=O)[C@H](CCCNC(=N)N)NC(=O)[C@H](CCC(N)=O)NC(=O)[C@H](CC(C)C)NC(=O)[C@H](Cc1ccccc1)NC(=O)[C@H](Cc1c[nH]cn1)NC(=O)[C@H](C)NC(=O)[C@H](CC(C)C)NC(=O)[C@H](CCCNC(=N)N)NC(=O)[C@H](CCC(=O)O)NC(=O)[C@@H](NC(=O)[C@H](C)NC(=O)[C@@H]1CSSC[C@H](NC(=O)[C@H](CCCNC(=N)N)NC(=O)CC[C@H](NC(=O)CCCCCCCCCCCCCCCCCCC(=O)O)C(=O)O)C(=O)N[C@@H](CCC(N)=O)C(=O)N[C@@H]([C@@H](C)O)C(=O)N[C@@H](C)C(=O)N[C@@H]([C@@H](C)O)C(=O)N1)[C@@H](C)O
B3: [19CD]-isoGlu-R-C( )-QTAT-C( )-ATDRLA-Aad-FLQRSSF-Gly(Me)-A-Ile(Me)-LSSTEVGSNT-Hyp-NH2 (Compd. 89) (peptide)
peptide: {C20 diacid}-[γGlu]RCQTATCATDRLA[Aad]FLQRSSF[Sar]A[NMeI]LSSTEVGSNT[Hyp]-NH2
modifications: disulfide 3-8
SMILES: CC[C@H](C)[C@@H](C(=O)N[C@@H](CC(C)C)C(=O)N[C@@H](CO)C(=O)N[C@@H](CO)C(=O)N[C@H](C(=O)N[C@@H](CCC(=O)O)C(=O)N[C@H](C(=O)NCC(=O)N[C@@H](CO)C(=O)N[C@@H](CC(N)=O)C(=O)N[C@H](C(=O)N1C[C@H](O)C[C@H]1C(N)=O)[C@@H](C)O)C(C)C)[C@@H](C)O)N(C)C(=O)[C@H](C)NC(=O)CN(C)C(=O)[C@H](Cc1ccccc1)NC(=O)[C@H](CO)NC(=O)[C@H](CO)NC(=O)[C@H](CCCNC(=N)N)NC(=O)[C@H](CCC(N)=O)NC(=O)[C@H](CC(C)C)NC(=O)[C@H](Cc1ccccc1)NC(=O)[C@H](CCCC(=O)O)NC(=O)[C@H](C)NC(=O)[C@H](CC(C)C)NC(=O)[C@H](CCCNC(=N)N)NC(=O)[C@H](CC(=O)O)NC(=O)[C@@H](NC(=O)[C@H](C)NC(=O)[C@@H]1CSSC[C@H](NC(=O)[C@H](CCCNC(=N)N)NC(=O)CC[C@H](NC(=O)CCCCCCCCCCCCCCCCCCC(=O)O)C(=O)O)C(=O)N[C@@H](CCC(N)=O)C(=O)N[C@@H]([C@@H](C)O)C(=O)N[C@@H](C)C(=O)N[C@@H]([C@@H](C)O)C(=O)N1)[C@@H](C)O

Assays:
[1] = biological target: T1, human amylin receptor 3 (hAMYR3), hCTR2 …; assay: cell-based or functional assay
[2] = biological target: T1, human amylin receptor 3 (hAMYR3), hCTR2 …; assay: cell-based or functional assay; remark: listed apart in the source

Row | hAMYR3 EC50 (nM); cAMP induction [1] | hAMYR3 EC50 (nM); cAMP induction [2] | Binder
1 | 0.15 nM | 0.15 nM | B1
2 | 0.11 nM | 0.11 nM | B2
3 | 0.2 nM | 0.2 nM | B3
